Laboratory results taken from the Human Domainome abundance scans (Beltran et al. 2025).
± gives the uncertainty stated by the source.

B1: SWI/SNF complex subunit SMARCC1, residues 620 to 663; numbered along this chain, Q92922 (parent)
chain: GREWTEQETLLLLEALEMYKDDWNKVSEHVGSRTQDECILHFLR

Variants of: B1
Experiment: abundance fitness (aPCA) (normalised: wild type 0, dead -1); higher = more abundant; growth selection in yeast, the domain comes from the species named
Settings: Homo sapiens

Row | Variant | abundance fitness
1 | GREWTEQETLLLLEAAEMYKDDWNKVSEHVGSRTQDECILHFLR [L16A] | 0.16 ± 0.051
2 | GREWTEQETLLLLEACEMYKDDWNKVSEHVGSRTQDECILHFLR [L16C] | 0.197 ± 0.057
3 | GREWTEQETLLLLEADEMYKDDWNKVSEHVGSRTQDECILHFLR [L16D] | -0.237 ± 0.093
4 | GREWTEQETLLLLEAEEMYKDDWNKVSEHVGSRTQDECILHFLR [L16E] | 0.274 ± 0.073
5 | GREWTEQETLLLLEAFEMYKDDWNKVSEHVGSRTQDECILHFLR [L16F] | -0.231 ± 0.083
6 | GREWTEQETLLLLEAGEMYKDDWNKVSEHVGSRTQDECILHFLR [L16G] | -0.05 ± 0.069
7 | GREWTEQETLLLLEAHEMYKDDWNKVSEHVGSRTQDECILHFLR [L16H] | 0.303 ± 0.073
8 | GREWTEQETLLLLEAIEMYKDDWNKVSEHVGSRTQDECILHFLR [L16I] | 0.079 ± 0.091
9 | GREWTEQETLLLLEAMEMYKDDWNKVSEHVGSRTQDECILHFLR [L16M] | 0.235 ± 0.08
10 | GREWTEQETLLLLEANEMYKDDWNKVSEHVGSRTQDECILHFLR [L16N] | 0.136 ± 0.072
11 | GREWTEQETLLLLEAPEMYKDDWNKVSEHVGSRTQDECILHFLR [L16P] | -0.77 ± 0.11
12 | GREWTEQETLLLLEAQEMYKDDWNKVSEHVGSRTQDECILHFLR [L16Q] | 0.428 ± 0.075
13 | GREWTEQETLLLLEAREMYKDDWNKVSEHVGSRTQDECILHFLR [L16R] | 0.469 ± 0.052
14 | GREWTEQETLLLLEASEMYKDDWNKVSEHVGSRTQDECILHFLR [L16S] | 0.094 ± 0.063
15 | GREWTEQETLLLLEATEMYKDDWNKVSEHVGSRTQDECILHFLR [L16T] | 0.316 ± 0.058
16 | GREWTEQETLLLLEAVEMYKDDWNKVSEHVGSRTQDECILHFLR [L16V] | 0.224 ± 0.058
17 | GREWTEQETLLLLEAWEMYKDDWNKVSEHVGSRTQDECILHFLR [L16W] | 0.024 ± 0.082
18 | GREWTEQETLLLLEAYEMYKDDWNKVSEHVGSRTQDECILHFLR [L16Y] | 0.334 ± 0.063
19 | GREWTEQETLLLLEALAMYKDDWNKVSEHVGSRTQDECILHFLR [E17A] | -0.087 ± 0.072
20 | GREWTEQETLLLLEALCMYKDDWNKVSEHVGSRTQDECILHFLR [E17C] | -0.763 ± 0.19

Row | Variant | abundance fitness
21 | GREWTEQETLLLLEALDMYKDDWNKVSEHVGSRTQDECILHFLR [E17D] | 0.054 ± 0.092
22 | GREWTEQETLLLLEALFMYKDDWNKVSEHVGSRTQDECILHFLR [E17F] | -0.548 ± 0.33
23 | GREWTEQETLLLLEALGMYKDDWNKVSEHVGSRTQDECILHFLR [E17G] | -0.213 ± 0.064
24 | GREWTEQETLLLLEALHMYKDDWNKVSEHVGSRTQDECILHFLR [E17H] | -0.357 ± 0.18
25 | GREWTEQETLLLLEALIMYKDDWNKVSEHVGSRTQDECILHFLR [E17I] | -0.553 ± 0.2
26 | GREWTEQETLLLLEALKMYKDDWNKVSEHVGSRTQDECILHFLR [E17K] | 0.139 ± 0.14
27 | GREWTEQETLLLLEALMMYKDDWNKVSEHVGSRTQDECILHFLR [E17M] | -0.722 ± 0.2
28 | GREWTEQETLLLLEALQMYKDDWNKVSEHVGSRTQDECILHFLR [E17Q] | -0.033 ± 0.11
29 | GREWTEQETLLLLEALRMYKDDWNKVSEHVGSRTQDECILHFLR [E17R] | -0.007 ± 0.058
30 | GREWTEQETLLLLEALSMYKDDWNKVSEHVGSRTQDECILHFLR [E17S] | -0.308 ± 0.082
31 | GREWTEQETLLLLEALTMYKDDWNKVSEHVGSRTQDECILHFLR [E17T] | -0.175 ± 0.14
32 | GREWTEQETLLLLEALVMYKDDWNKVSEHVGSRTQDECILHFLR [E17V] | -0.503 ± 0.1
33 | GREWTEQETLLLLEALWMYKDDWNKVSEHVGSRTQDECILHFLR [E17W] | -0.716 ± 0.14
34 | GREWTEQETLLLLEALEAYKDDWNKVSEHVGSRTQDECILHFLR [M18A] | 0.115 ± 0.069
35 | GREWTEQETLLLLEALECYKDDWNKVSEHVGSRTQDECILHFLR [M18C] | -0.158 ± 0.14
36 | GREWTEQETLLLLEALEDYKDDWNKVSEHVGSRTQDECILHFLR [M18D] | -0.097 ± 0.25
37 | GREWTEQETLLLLEALEEYKDDWNKVSEHVGSRTQDECILHFLR [M18E] | -0.135 ± 0.11
38 | GREWTEQETLLLLEALEFYKDDWNKVSEHVGSRTQDECILHFLR [M18F] | -0.1 ± 0.094
39 | GREWTEQETLLLLEALEGYKDDWNKVSEHVGSRTQDECILHFLR [M18G] | -0.24 ± 0.074
40 | GREWTEQETLLLLEALEHYKDDWNKVSEHVGSRTQDECILHFLR [M18H] | -0.04 ± 0.084

Row | Variant | abundance fitness
41 | GREWTEQETLLLLEALEIYKDDWNKVSEHVGSRTQDECILHFLR [M18I] | -0.264 ± 0.23
42 | GREWTEQETLLLLEALEKYKDDWNKVSEHVGSRTQDECILHFLR [M18K] | -0.076 ± 0.089
43 | GREWTEQETLLLLEALELYKDDWNKVSEHVGSRTQDECILHFLR [M18L] | 0.063 ± 0.067
44 | GREWTEQETLLLLEALENYKDDWNKVSEHVGSRTQDECILHFLR [M18N] | -0.018 ± 0.25
45 | GREWTEQETLLLLEALEPYKDDWNKVSEHVGSRTQDECILHFLR [M18P] | -0.583 ± 0.41
46 | GREWTEQETLLLLEALEQYKDDWNKVSEHVGSRTQDECILHFLR [M18Q] | 0.056 ± 0.077
47 | GREWTEQETLLLLEALERYKDDWNKVSEHVGSRTQDECILHFLR [M18R] | 0.142 ± 0.069
48 | GREWTEQETLLLLEALESYKDDWNKVSEHVGSRTQDECILHFLR [M18S] | -0.168 ± 0.076
49 | GREWTEQETLLLLEALETYKDDWNKVSEHVGSRTQDECILHFLR [M18T] | 0.1 ± 0.17
50 | GREWTEQETLLLLEALEVYKDDWNKVSEHVGSRTQDECILHFLR [M18V] | -0.002 ± 0.067
51 | GREWTEQETLLLLEALEWYKDDWNKVSEHVGSRTQDECILHFLR [M18W] | -0.2 ± 0.11
52 | GREWTEQETLLLLEALEYYKDDWNKVSEHVGSRTQDECILHFLR [M18Y] | -0.129 ± 0.13
53 | GREWTEQETLLLLEALEMCKDDWNKVSEHVGSRTQDECILHFLR [Y19C] | 0.09 ± 0.099
54 | GREWTEQETLLLLEALEMDKDDWNKVSEHVGSRTQDECILHFLR [Y19D] | -0.218 ± 0.15
55 | GREWTEQETLLLLEALEMEKDDWNKVSEHVGSRTQDECILHFLR [Y19E] | -0.216 ± 0.13
56 | GREWTEQETLLLLEALEMGKDDWNKVSEHVGSRTQDECILHFLR [Y19G] | -0.108 ± 0.059
57 | GREWTEQETLLLLEALEMHKDDWNKVSEHVGSRTQDECILHFLR [Y19H] | 0.062 ± 0.14
58 | GREWTEQETLLLLEALEMIKDDWNKVSEHVGSRTQDECILHFLR [Y19I] | -0.693 ± 0.15
